According to publication doi:10.1101/2024.01.24.577054 (bioRxiv, 2024):

Target: the molecule itself
Assay: FRET or BRET

B1: BmrA, homodimeric multi-drug resistance ABC exporter from B. subtilis (His-C-ter-BmrA), labelled with sulfo-Cy3/sulfo-Cy5 (natural protein, UniProt O06967 1-589, looked up)
chain: MPTKKQKSKSKLKPFFALVRRTNPSYGKLAFALALSVVTTLVSLLIPLLTKQLVDGFSMSNLSGTQIGLIALVFFVQAGLSAYATYALNYNGQKIISGLRELLWKKLIKLPVSYFDTNASGETVSRVTNDTMVVKELITTHISGFITGIISVIGSLTILFIMNWKLTLLVLVVVPLAALILVPIGRKMFSISRETQDETARFTGLLNQILPEIRLVKASNAEDVEYGRGKMGISSLFKLGVREAKVQSLVGPLISLVLMAALVAVIGYGGMQVSSGELTAGALVAFILYLFQIIMPMGQITTFFTQLQKSIGATERMIEILAEEEEDTVTGKQIENAHLPIQLDRVSFGYKPDQLILKEVSAVIEAGKVTAIVGPSGGGKTTLFKLLERFYSPTAGTIRLGDEPVDTYSLESWREHIGYVSQESPLMSGTIRENICYGLERDVTDAEIEKAAEMAYALNFIKELPNQFDTEVGERGIMLSGGQRQRIAIARALLRNPSILMLDEATSSLDSQSEKSVQQALEVLMEGRTTIVIAHRLSTVVDADQLLFVEKGEITGRGTHHELMASHGLYRDFAEQQLKMNADLENKAG
modifications: sulfo-Cy3 or sulfo-Cy5 maleimide dye on C436 (the sole Cys residue of each monomer)
- binding result: binds
